Consider one molecule from patent US20220347267A1, “METHODS TO IMPROVE PATIENT RESPONSE TO IMMUNE CHECKPOINT INHIBITORS AND FUNCTIONAL TESTS TO PREDICT RESPONSE” (Biomarker Strategies, LLC, priority 2019, published 2022).

This test concerns H1650 cells. The experiment in a line: PD-L1 immunocytochemistry (ICC), IFNγ modulation. It counts as cell-based. To be noted: H1650 (NSCLC); 10 ng/mL human IFNγ, 24h; anti-PD-L1 clone E1L3N. Here is the method: The human NSCLC cell line SKMES1 was grown in Eagle's Minimum Essential Medium (EMEM; ATCC #30-2003) with 10% Fetal Bovine Serum (FBS) and 1% Penicillin and Streptomycin (P/S). The human NSCLC H460, H1299 and H292 and melanoma cell lines MeWo, HMVII, A375 and CHL1 were grown in RPMI1640 medium with 10% FBS and 1% P/S and 1% sodium pyruvate. Cultured cells were harvested using Accutase, and the cell count and viability were determined using trypan blue dye exclusion. Other methods to collect cells, including scraping or other release can be used.
Between 15,000 to 20,000 cells were put into each chamber of 8-chambered ICC slides in 200 uL medium with or without 10 ng/mL human IFNγ. […] IFNγ can be readily replaced by other modulators discussed within. […] Cell lines can be readily switched for other sources of cells, including those isolated from xenografts or clinical samples and can be processed manually or using automated methods (e.g. on SnapPath).
Cells on the chambered slides were stained entirely at RT using the BioGenex RTU Detection System kit components (QD400) unless otherwise indicated. Other detection reagents and methods (e.g. multiplex immunocytochemistry, single of multiplex immunofluorescence, confocal, etc.), including automated staining methods, can be used readily. […] Ki67, T-EGFR or vimentin are provided as examples of positive controls, but others can be readily used. […]

B1: IFNγ: human IFNγ, modulator (10 ng/ml; Sigma Aldrich) (protein, UniProt P01579 24-161, looked up)
Interferon gamma: QDPYVKEAENLKKYFNAGHSDVADNGTLFLGILKNWKEESDRKIMQSQIVSFYFKLFKNFKDDQSIQKSVETIKEDMNVKFFNSNKKKRDDFEKLTNYSVTDLNVQRKAIHELIQVMAELSPAAKTGKRKRSQMLFRG
For B1, the “Immunocytochemical Score, PD-L1, IFNγ-Treated Cells” value is “Negative”.
